Assay [1] addresses recombinant purified human IL-12 p70 (human) (UniProt P29459). As to the kind of experiment: cell-based or functional assay.
Assay [2] has the same target. As to the kind of experiment: SPR (Biacore 3000), mAb captured via goat anti-mouse IgG Fc, human IL-12 p70 in solution.
Assay [3] shares this target. As to the kind of experiment: SPR (Biacore) per Example 1.1.B; antigen not restated, taken as human IL-12 p70.
For assay [4] the target is unchanged. As to the kind of experiment: SPR (BIAcore) per Example 1.1.B; antigen not restated, taken as human IL-12 p70.

Residue numbers refer to the chain shown, from its start.

Experimental findings from patent US20100047245A1 are described below.

Chain of recombinant purified human IL-12 p70 (human) (chain, as listed by the source, form in doubt, chain 1 of 2): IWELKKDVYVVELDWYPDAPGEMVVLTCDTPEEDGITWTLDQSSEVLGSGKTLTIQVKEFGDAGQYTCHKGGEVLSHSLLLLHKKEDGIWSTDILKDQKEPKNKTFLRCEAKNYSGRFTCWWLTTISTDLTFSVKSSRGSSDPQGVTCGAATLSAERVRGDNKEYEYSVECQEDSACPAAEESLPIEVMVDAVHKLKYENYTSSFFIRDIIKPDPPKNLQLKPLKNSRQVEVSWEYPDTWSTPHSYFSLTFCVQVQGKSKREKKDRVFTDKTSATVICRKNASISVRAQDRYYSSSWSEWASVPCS
Chain of recombinant purified human IL-12 p70 (human) (P29459 23-219, form in doubt, chain 2 of 2): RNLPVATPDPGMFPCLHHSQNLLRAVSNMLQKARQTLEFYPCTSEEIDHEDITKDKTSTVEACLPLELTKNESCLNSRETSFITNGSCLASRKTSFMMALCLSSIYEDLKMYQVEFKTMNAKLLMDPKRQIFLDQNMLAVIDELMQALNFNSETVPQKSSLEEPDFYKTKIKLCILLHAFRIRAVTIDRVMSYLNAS

B1: 7G3 (antibody, V domains shown)
VH: EVQLQQSGAEFVRSGASVKLSCTASGLNIKDYYIHWVKQRPEQVLDWIGWIDPENGYSEYAPRFQDKATMTADTSSNTAYLHLSSLTSEDTAVYYCNPGELARYFDYWGQGTTLTVSS
VL: DIVLSQSPATLSVTPGDSVSLSCRASQSISKNLHWYQQKSHESPRLLIKYTSQSISGIPSRFSGSGSGTDFTLSINSVETEDFGMYFCQQSISWPLTFGAGTKLELKR
On to B1, for which the Average IC50 (nM) Human IL-12; PHA blast IFN-gamma induction assay in assay [1] is 0.047 nM. Also, in assay [2], the dissociation constant Kd was 270 pM, the off-rate (koff) was found to be 0.00028 s⁻¹ and the on-rate constant (kon) is 1.1e+06 M⁻¹ s⁻¹.

B2: 1A6.10 (antibody, V domains shown)
VH: EVTLRESGPGLVKPTQTLTLTCTLYGFSLSTSGMGVSWIRQPPGKGLEWLAHIWWDGDNYYNPSLKSQLTISKDTSKNQVVLKLTSVDPVDTATYYCARRTRVNYAMDYWGQGTLVTVSS
VL: DIQMTQSPSSLSASVGDRVTITCKASQSVSNDVAWYQQKPGKAPKLLIYYASNRYTGVPDRFSGSGYGTDFTFTISSLQPEDIATYYCQQDYNSPWTFGGGTKVEIKR
Take B2: the Av. IC50(nM) huIL-12; PHA blast IFN-gamma induction assay in assay [1] was 0.15 nM. In assay [3], the equilibrium dissociation constant (Kd) came out at 24 pM, the koff came out at 7.6e-06 s⁻¹ and the kon was determined as 320000 M⁻¹ s⁻¹.

B3: 1A6.12 (antibody, IgG1, V domains shown)
VH: B2 VH
VL: B2 VL with Y36F
B3: in assay [1], the Av. IC50(nM) huIL-12; PHA blast IFN-gamma induction assay was determined as 0.088 nM. For the same molecule, in assay [3], the Kd amounted to 400 pM, the koff was determined as 0.0003 s⁻¹ and the kon stood at 740000 M⁻¹ s⁻¹.

B4: 1D4 (antibody, V domains shown)
VH: QVTLKESGPGILQPSQTLSLTCSFSGFSLRKSVMGVSWIRQPSGKGLEWLAHIYWDDDKYYNPSLKSRLTISKDPSRNQVFLKITSVDTADAATYYCTRRGIRSAMDYWGQGTSVTVSS
VL: SVVMTQTPKFLLVSAGDRVTITCKASQSVSNDVAWYQQKPGQSPKLLIYYASNRYTGVPDRFTGSGYGTDFTFIISTVRAEDLAVYFCQQDYNSPWTFGGGTKLEIKR
On to B4, for which the Average IC50 (nM) Human IL-12; PHA blast IFN-gamma induction assay in assay [1] is 0.031 nM. In addition, in assay [2], the Kd was 120 pM, the dissociation rate constant (koff) turned out to be 2.9e-05 s⁻¹ and the kon was 250000 M⁻¹ s⁻¹.

B5: 1D8 (antibody, V domains shown)
VH: QVQLQQSGAELMKPGASVKISCKATGYTFSSYWIEWVKQRPGHGLEWIGDILPGSGSTNYNEKFKDKATFTADTSFNTAYMQLSSLTSEDSAVYYCATRRFRGLDYWGQGTTLTVSS
VL: B4 VL with V2I, P40S, I74T, R79Q, A80P, N93T, W96F, G100S
For B5, the Average IC50 (nM) Human IL-12; PHA blast IFN-gamma induction assay in assay [1] is 0.31 nM. Further, in assay [2], the dissociation constant Kd was found to be 44 pM, the koff was 2.3e-05 s⁻¹ and the kon was 510000 M⁻¹ s⁻¹.

B6: 1D4.4 (antibody, human IgG1, V domains shown)
VH: EVTLRESGPALVKPTQTLTLTCTFSGFSLSKSVMGVSWIRQPPGKALEWLAHIYWDDDKYYNPSLKSRLTISKDTSKNQVVLTMTNMDPVDTATYYCARRGIRSAMDYWGQGTTVTVSS
VL: B4 VL
Take B6: the Av. IC50(nM) huIL-12; PHA blast IFN-gamma induction assay in assay [1] is 0.64 nM. For the same molecule, in assay [4], the dissociation constant (Kd) was 74 pM, the koff amounted to 2.1e-05 s⁻¹ and the kon is 280000 M⁻¹ s⁻¹.

B7: 3G7 (antibody, V domains shown)
VH: QVQLQQSGAELMKPGASVKISCKATGYTFNDYWIEWVKQRPGHGLEWIGGFSHGSGSTNYNEKFKGKATFTADSSSNTAYMQLSSLTSEDSAVYYCARRRFRGMDYWGQGTSVTVSS
VL: B4 VL with V2I, I74T, S76T, R79Q, N93S, T97S
For B7, the Average IC50 (nM) Human IL-12; PHA blast IFN-gamma induction assay in assay [1] was determined as 0.15 nM. In assay [2], the Kd came to 47 pM, the dissociation rate constant (koff) was found to be 3.8e-05 s⁻¹ and the kon worked out at 820000 M⁻¹ s⁻¹.

B8: 5E8 (antibody, V domains shown)
VH: QIQLVQSGPELKKPGETVKISCKASGYSFTDYSMHWVKQAPGKGLKWMDWINTETGEPTYADDFKGRFAFSLETSASTAYLQINNLKNEDTATYFCSRRRYRAFDYWGQGTTLTVSS
VL: B4 VL with V2I, T7S, P40L, I74T, S76N, R79Q, N93T, W96Y, K107Q
Take B8: in assay [1], the Average IC50 (nM) Human IL-12; PHA blast IFN-gamma induction assay is 12 nM. In assay [2], the equilibrium dissociation constant (Kd) amounted to 4000 pM, the koff was 0.0023 s⁻¹ and the kon came to 570000 M⁻¹ s⁻¹.

B9: 1A6 (antibody, V domains shown)
VH: QVTLKESGPGILKPSQTLSLTCSFSGFSLSTSGMGVSWIRQPSGKGLEWLAHIWWDGDNYYNPSLKSQLTISKDTSRNQVFLRIATVDTADTATYYCARRTRVNYAMDYWGQGTSVTVSS
VL: B4 VL with Y36F, I74T, R79Q
As for B9, the Average IC50 (nM) Human IL-12; PHA blast IFN-gamma induction assay in assay [1] stood at 0.052 nM. In assay [2], the equilibrium dissociation constant (Kd) was determined as 230 pM, the koff was 3.5e-05 s⁻¹ and the on-rate (kon) is 150000 M⁻¹ s⁻¹.

B10: 4B4 (antibody, V domains shown)
VH: B9 VH with F24L, N59S, Y61S, K66R, Q68R, K73R
VL: B4 VL with I21M, Y36F, I74T, R79Q
With B10, the Average IC50 (nM) Human IL-12; PHA blast IFN-gamma induction assay in assay [1] came to 0.039 nM. Moreover, in assay [2], the dissociation constant Kd was 100 pM, the koff stood at 1.4e-05 s⁻¹ and the kon worked out at 130000 M⁻¹ s⁻¹.

B11: 1D4.5 (antibody, human IgG1, V domains shown)
VH: B4 VH
VL: DIVMTQSPDSLAVSLGERATINCKASQSVSNDVAWYQQKPGQPPKLLIYYASNRYTGVPDRFSGSGSGTDFTLTISSLQAEDVAVYYCQQDYNSPWTFGGGTKVEIKR
Consider B11, for which the Av. IC50(nM) huIL-12; PHA blast IFN-gamma induction assay in assay [1] was found to be 0.053 nM. In addition, in assay [4], the Kd was determined as 110 pM, the koff is 3.1e-05 s⁻¹ and the kon worked out at 300000 M⁻¹ s⁻¹.

B12: 1A6.3 (antibody, human IgG1, V domains shown)
VH: EVTLKESGPVLVKPTETLTLTCTVSGFSLSTSGMGVSWIRQPPGKALEWLAHIWWDGDNYYNPSLKSRLTISKDTSKSQVVLTMTNMDPVDTATYYCARRTRVNYAMDYWGQGTTVTVSS
VL: B4 VL with Y36F, I74T, R79Q
For B12, the Av. IC50(nM) huIL-12; PHA blast IFN-gamma induction assay in assay [1] amounted to 0.068 nM. Moreover, in assay [4], the Kd stood at 140 pM, the koff was found to be 2.6e-05 s⁻¹ and the kon came to 190000 M⁻¹ s⁻¹.

B13: 1H6 (antibody, V domains shown)
VH: EVKLVESGGGLVQPGGSRKLSCAASGFTFSDYGMVWVRQAPGKGLEWVAYISSGSSTIHYADTMKGRFTISRDNPKNTLFLQMSSLRSEDTAMYYCARRHYYAMDYWGQGTSVTVSS
VL: B4 VL with V2F, S65T, I74T, R79Q, N93T, W96F, G100S
Turning to B13, the Average IC50 (nM) Human IL-12; PHA blast IFN-gamma induction assay in assay [1] was 0.69 nM. Also, in assay [2], the Kd was 250 pM, the koff was 9.9e-05 s⁻¹ and the kon was 430000 M⁻¹ s⁻¹.
